Here are results for 11 molecules from patent US20250218531A1 (ABSCI, published 2025).

Where “and” joins values, the source holds several entries; their conditions need not be identical. Equal entries are not always repeated.

The labels stand for the following.
B1: Trastuzumab HCDR3 variant ARYGTGTYYYFLH (Fab, V domains shown)
VH: EVQLVESGGGLVQPGGSLRLSCAASGFNIKDTYIHWVRQAPGKGLEWVARIYPTNGYTRYADSVKGRFTISADTSKNTAYLQMNSLRAEDTAVYYCARYGTGTYYYFLHWGQGTLVTVSS
VL: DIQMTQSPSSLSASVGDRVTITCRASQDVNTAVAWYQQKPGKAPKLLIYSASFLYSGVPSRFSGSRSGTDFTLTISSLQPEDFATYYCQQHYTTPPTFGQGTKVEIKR
B2: Trastuzumab HCDR3 variant ARYPNYGFYMFDY (Fab, V domains shown)
VH: EVQLVESGGGLVQPGGSLRLSCAASGFNIKDTYIHWVRQAPGKGLEWVARIYPTNGYTRYADSVKGRFTISADTSKNTAYLQMNSLRAEDTAVYYCARYPNYGFYMFDYWGQGTLVTVSS
VL: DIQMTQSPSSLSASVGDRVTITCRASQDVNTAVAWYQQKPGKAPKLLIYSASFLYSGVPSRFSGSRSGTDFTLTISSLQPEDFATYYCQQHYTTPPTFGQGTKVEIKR
B3: Trastuzumab HCDR3 variant ARYIFGGPYYFDY (Fab, V domains shown)
VH: EVQLVESGGGLVQPGGSLRLSCAASGFNIKDTYIHWVRQAPGKGLEWVARIYPTNGYTRYADSVKGRFTISADTSKNTAYLQMNSLRAEDTAVYYCARYIFGGPYYFDYWGQGTLVTVSS
VL: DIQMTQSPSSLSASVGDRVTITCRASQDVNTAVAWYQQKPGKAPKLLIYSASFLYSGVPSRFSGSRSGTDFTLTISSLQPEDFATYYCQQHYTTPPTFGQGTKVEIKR
B4: Trastuzumab HCDR3 variant ARYPGGGIYDFDP (Fab, V domains shown)
VH: EVQLVESGGGLVQPGGSLRLSCAASGFNIKDTYIHWVRQAPGKGLEWVARIYPTNGYTRYADSVKGRFTISADTSKNTAYLQMNSLRAEDTAVYYCARYPGGGIYDFDPWGQGTLVTVSS
VL: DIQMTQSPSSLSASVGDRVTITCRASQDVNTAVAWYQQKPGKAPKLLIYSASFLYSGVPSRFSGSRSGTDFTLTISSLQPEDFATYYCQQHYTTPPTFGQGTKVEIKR
B5: Trastuzumab HCDR3 variant ARYGYDYYYYFDV (Fab, V domains shown)
VH: EVQLVESGGGLVQPGGSLRLSCAASGFNIKDTYIHWVRQAPGKGLEWVARIYPTNGYTRYADSVKGRFTISADTSKNTAYLQMNSLRAEDTAVYYCARYGYDYYYYFDVWGQGTLVTVSS
VL: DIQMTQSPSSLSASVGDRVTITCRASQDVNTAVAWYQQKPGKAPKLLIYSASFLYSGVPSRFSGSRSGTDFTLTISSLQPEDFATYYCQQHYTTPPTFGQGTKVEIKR
B6: Trastuzumab HCDR3 variant ARYNPFDGFYFDV (Fab, V domains shown)
VH: EVQLVESGGGLVQPGGSLRLSCAASGFNIKDTYIHWVRQAPGKGLEWVARIYPTNGYTRYADSVKGRFTISADTSKNTAYLQMNSLRAEDTAVYYCARYNPFDGFYFDVWGQGTLVTVSS
VL: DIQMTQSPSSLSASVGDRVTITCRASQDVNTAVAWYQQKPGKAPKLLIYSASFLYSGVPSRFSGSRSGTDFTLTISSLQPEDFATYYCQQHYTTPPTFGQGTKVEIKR
B7: Trastuzumab HCDR3 variant ARYMRPAFYPFLY (Fab, V domains shown)
VH: EVQLVESGGGLVQPGGSLRLSCAASGFNIKDTYIHWVRQAPGKGLEWVARIYPTNGYTRYADSVKGRFTISADTSKNTAYLQMNSLRAEDTAVYYCARYMRPAFYPFLYWGQGTLVTVSS
VL: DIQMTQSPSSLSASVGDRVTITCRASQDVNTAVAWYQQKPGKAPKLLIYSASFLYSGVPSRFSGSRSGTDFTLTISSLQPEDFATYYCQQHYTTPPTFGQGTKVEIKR
B8: Trastuzumab HCDR3 variant ARYLTDADFRLHY (Fab, V domains shown)
VH: EVQLVESGGGLVQPGGSLRLSCAASGFNIKDTYIHWVRQAPGKGLEWVARIYPTNGYTRYADSVKGRFTISADTSKNTAYLQMNSLRAEDTAVYYCARYLTDADFRLHYWGQGTLVTVSS
VL: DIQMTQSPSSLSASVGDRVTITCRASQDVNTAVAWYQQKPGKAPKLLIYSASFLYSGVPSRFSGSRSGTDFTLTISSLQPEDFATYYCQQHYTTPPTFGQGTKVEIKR
B9: Trastuzumab HCDR3 variant ARYGYGAYYYFDY (Fab, V domains shown)
VH: EVQLVESGGGLVQPGGSLRLSCAASGFNIKDTYIHWVRQAPGKGLEWVARIYPTNGYTRYADSVKGRFTISADTSKNTAYLQMNSLRAEDTAVYYCARYGYGAYYYFDYWGQGTLVTVSS
VL: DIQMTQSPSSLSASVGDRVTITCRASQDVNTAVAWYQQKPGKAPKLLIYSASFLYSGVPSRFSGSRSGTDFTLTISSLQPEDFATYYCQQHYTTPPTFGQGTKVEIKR
B10: Trastuzumab HCDR3 variant ARYPSGYYYYFDY (Fab, V domains shown)
VH: EVQLVESGGGLVQPGGSLRLSCAASGFNIKDTYIHWVRQAPGKGLEWVARIYPTNGYTRYADSVKGRFTISADTSKNTAYLQMNSLRAEDTAVYYCARYPSGYYYYFDYWGQGTLVTVSS
VL: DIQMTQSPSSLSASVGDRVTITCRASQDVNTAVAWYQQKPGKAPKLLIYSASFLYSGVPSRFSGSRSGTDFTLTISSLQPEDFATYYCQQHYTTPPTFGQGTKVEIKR
B11: Trastuzumab HCDR3 variant ARYVTANTYSYDP (Fab, V domains shown)
VH: EVQLVESGGGLVQPGGSLRLSCAASGFNIKDTYIHWVRQAPGKGLEWVARIYPTNGYTRYADSVKGRFTISADTSKNTAYLQMNSLRAEDTAVYYCARYVTANTYSYDPWGQGTLVTVSS
VL: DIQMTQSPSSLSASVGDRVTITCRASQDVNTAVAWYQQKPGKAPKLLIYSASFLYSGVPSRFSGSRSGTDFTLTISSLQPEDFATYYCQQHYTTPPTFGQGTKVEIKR

This assay addresses human epidermal growth factor receptor 2 (HER2) extracellular domain (human, UniProt P04626 23-629). The experiment in a line: SPR. On the technique in general: Surface plasmon resonance follows binding to a sensor surface in real time, without labels.
As for B1, the dissociation constant (Kd) was 42.3 nM and 42.2 nM; the “log(KD (M))” value is -7.37 log(M).

In the case of B2, the affinity, expressed as Kd, was 33.3 nM and the “log(KD (M))” value was -7.48 log(M).

Consider B3, for which the Kd came out at 36 nM and the “log(KD (M))” value was -7.44 log(M).

B4: the Kd is 39.9 nM and the “log(KD (M))” value was -7.4 log(M).

As for B5, the equilibrium dissociation constant (Kd) stood at 50 nM and the “log(KD (M))” value was -7.3 log(M).

In the case of B6, binding was put at a Kd of 156 nM and the “log(KD (M))” value was -6.81 log(M).

On to B7, for which the Kd is 50.9 nM and the “log(KD (M))” value was -7.29 log(M).

For B8, the equilibrium dissociation constant (Kd) was 75.1 nM and the “log(KD (M))” value is -7.12 log(M).

With B9, the Kd was 54 nM and the “log(KD (M))” value was -7.27 log(M).

In the case of B10, the Kd is 90.1 nM and the “log(KD (M))” value was -7.05 log(M).

For the molecule B11, the dissociation constant Kd is 83.6 nM and 83.5 nM; the “log(KD (M))” value is -7.08 log(M).

Broadly, the Kd is a measure of binding affinity in units of concentration.
